Assay results taken from paper PMC4365404, “Understanding the effect of alternative splicing in the folding and function of the second PDZ from Protein Tyrosine Phosphatase-BL” (Scientific Reports, 2015).
Blank lines part the entries; values can stand above or below the molecule they belong to. Where a SMILES comes first, the peptide text is derived from it. Where no end group is shown, it is not given here. The star is where a group is joined. Dansyl = CN(C)c1cccc2c(S(=O)(=O)*)cccc12

Key:
pWT43 PDZ2as = target: T1, pWT43 PDZ2as (Mus musculus, UniProt Q64512, INS1372VLFDK/Y1385W); assay: T-jump kinetic binding of dansylated peptides to pWT43 PDZ2as; settings: 50 mM sodium phosphate pH 7.2, 150 mM KCl; for Kd: 25°C, from T-jump kinetics, read-out: overall KD obtained from kinetic experiments; for kon / koff: T-jump 16 to 25°C, PDZ2as 2 μM, peptide 100 to 400 μM, fluorescence ex 296 nm, 20 traces averaged, pseudo-first order; for kon: read-out: association bimolecular rate constant kon; for koff: read-out: dissociation rate constant koff
T1 construct: The second PDZ domain of the protein tyrosine phosphatase BL (PDZ2); made in house
T1 sequence (Q64512 with tags, fused parts or gaps INS1372VLFDK/Y1385W): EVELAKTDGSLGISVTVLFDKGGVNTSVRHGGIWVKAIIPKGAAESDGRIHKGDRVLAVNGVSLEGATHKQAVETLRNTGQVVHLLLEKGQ
Description: Previous studies have highlighted that the alternative splicing affects remarkably the binding function of the PDZ moiety, by nearly abrogating binding. To address the binding mechanism of pWT43 PDZ2as and its physiological partners, we performed kinetic experiments at 25°C. We carried out kinetic binding experiments by subjecting to temperature jump kinetics a constant concentration of pWT43 PDZ2as (2 μM) in the presence of excess concentrations of dansylated peptides mimicking the PDZ binding motif of APC and RIL; the latter concentrations typically varying from 100 to 400 μM. In particular, individual solutions containing a constant concentration of PDZ2as 2 μM and different concentrations of APC and RIL peptide were prepared and, subsequently, each of these solutions was subjected to a rapid temperature-jump to explore sub-ms relaxation binding kinetics. Under all the explored conditions, the observed time course was satisfactorily fitted by a single-exponential function, without evidence for accumulation of detectable intermediates. Analysis of the pseudo-first order dependence of observed rate constants (Figure 6) yields an association bimolecular rate constant kon of (0.44 ± 0.1) 10^6 s^−1 M^−1 and (0.74 ± 0.1) 10^6 s^−1 M^−1 and a dissociation rate constant koff of 145 ± 10 s^−1 and 120 ± 15 s^−1, respectively for APC and RIL peptides. […] A comparison between the observed kinetics on the light of previously reported structural and kinetic data of pWT43 PDZ2 is briefly discussed below.
Figure 6 Binding properties of pWT43 PDZ2as and of pWT43 PDZ2. Pseudo first order kinetics of the binding between pWT43 PDZ2as (circles) and pWT43 PDZ2 (diamonds) carried out at pH 7.2, 25°C. Data refer to both the APC (open symbols) and RIL (filled symbols) peptide.
Dansylated peptides corresponding to the C-terminus of APC and RIL, sequences D-SYLVTSV and D-EQVSAV, respectively, were purchased from JPT Peptide Technologies (Berlin, Germany); peptides were purified using high-performance liquid chromatography-purified peptide with purity higher than 95%.
Binding experiments were performed mixing a constant concentration of PDZ2as 2 μM with increasing concentrations of the APC or RIL peptide ranging from 100 to 400 μM in 50 mM sodium phosphate pH 7.2, in the presence of 150 mM KCl. The experiments were carried out using a Hi-Tech PTJ-64 capacitor-discharge T-jump apparatus (Hi-Tech, Salisbury, U.K.). Temperature was rapidly changed from 16°C to 25°C with a jump of 9°C. 20 individual traces were averaged at given peptide concentration. The fluorescence change of N-acetyltryptophanamide (NATA) was used in control measurements. Protein concentration was typically […]. The excitation wavelength was 296 nm and the fluorescence emission was measured using a band pass 315 +/− 25 nm glass filter.

[1] = target: T2, pWT43 PDZ2as, the alternatively spliced form of the second PDZ domain of protein tyrosine phosphatase BL …; assay: temperature-jump fluorescence relaxation kinetics; constant pWT43 PDZ2as 2 uM with dansylated peptide 100 to 400 uM (pseudo-first order); 50 mM sodium phosphate pH 7.2, 150 mM KCl; jump from 16 to 25 °C; KD from kinetics; settings: both partners purified
T2 chain: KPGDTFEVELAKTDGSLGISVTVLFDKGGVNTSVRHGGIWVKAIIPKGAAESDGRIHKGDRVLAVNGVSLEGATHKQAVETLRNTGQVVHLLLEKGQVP

- Kd (pWT43 PDZ2as): 352 ± 20 µM
- kon (pWT43 PDZ2as): 440000 ± 100000 M⁻¹ s⁻¹
- koff (pWT43 PDZ2as): 145 ± 10 s⁻¹
Molecule: CC(C)C[C@H](NC(=O)[C@H](Cc1ccc(O)cc1)NC(=O)[C@H](CO)NS(=O)(=O)c1cccc2c(N(C)C)cccc12)C(=O)N[C@H](C(=O)N[C@H](C(=O)N[C@@H](CO)C(=O)N[C@H](C(=O)O)C(C)C)[C@@H](C)O)C(C)C [APC] (Dansyl-SYLVTSV-OH)

- Kd (pWT43 PDZ2as): 162 ± 10 µM
- kon (pWT43 PDZ2as): 740000 ± 100000 M⁻¹ s⁻¹
- koff (pWT43 PDZ2as): 120 ± 15 s⁻¹
Molecule: CC(C)[C@H](NC(=O)[C@H](C)NC(=O)[C@H](CO)NC(=O)[C@@H](NC(=O)[C@H](CCC(N)=O)NC(=O)[C@H](CCC(=O)O)NS(=O)(=O)c1cccc2c(N(C)C)cccc12)C(C)C)C(=O)O [RIL] (Dansyl-EQVSAV-OH)

- Kd [1]: 162 ± 10 µM
- fold decrease of kon against pWT43 PDZ2 [1]: ~10 fold
- koff [1]: 120 ± 15 s⁻¹
- kon [1]: 740000 M⁻¹ s⁻¹
B1: Dansylated peptide corresponding to the C-terminus of RIL (D-EQVSAV) (peptide)
peptide: Dansyl-EQVSAV
notes: Which natural protein the peptide comes from is in doubt; also called RIL peptide; source: bought: JPT Peptide Technologies (Berlin, Germany), HPLC-purified, purity higher than 95%

- Kd [1]: 352 ± 20 µM
- fold decrease of kon against pWT43 PDZ2 [1]: ~10 fold
- koff [1]: 145 ± 10 s⁻¹
- kon [1]: 440000 M⁻¹ s⁻¹
B2: Dansylated peptide corresponding to the C-terminus of APC (D-SYLVTSV) (peptide)
peptide: Dansyl-SYLVTSV
notes: C-terminus of the tumour suppressor protein APC; the last 7 residues; also called APC peptide; source: bought: JPT Peptide Technologies (Berlin, Germany), HPLC-purified, purity higher than 95%
